# According to US20180346602A1:
# How the values were obtained:
# [1] = biological target: anti-VEGF/ANG2 antibody (IgG1 subclass with mutations P329G/L234A/L235A) [IgG part: P01857]; experiment: sandwich ELISA assay A; capture M1.7.10-Bi; antibody 2 at 2 ng/mL
# [2] = biological target: anti-VEGF/ANG2 antibody (IgG1 subclass with mutations P329G/L234A/L235A) [IgG part: P01857]; experiment: sandwich ELISA assay A; capture M1.7.10-Bi; antibody 2 at 6 ng/mL
# [3] = biological target: anti-IGF-1R antibody (IgG1 subclass with mutations I253A/H310A/H435A) [IgG part: P01857]; experiment: sandwich ELISA assay A; capture M1.7.10-Bi; antibody 3 at 6 ng/mL
# [4] = biological target: anti-P-Selectin antibody (IgG4 subclass with mutations S228P/L235E) [IgG part: P01861]; experiment: sandwich ELISA assay A; capture M1.7.10-Bi; antibody 4 at 2 ng/mL
# [5] = biological target: anti-P-Selectin antibody (IgG4 subclass with mutations S228P/L235E) [IgG part: P01861]; experiment: sandwich ELISA assay A; capture M1.7.10-Bi; antibody 4 at 3 ng/mL
# [6] = biological target: anti-VEGF/ANG2 antibody (wild-type IgG1 subclass) [IgG part: P01857]; experiment: sandwich ELISA assay A; capture M1.7.10-Bi; antibody 5 at 2 ng/mL
# [7] = biological target: anti-VEGF/ANG2 antibody (IgG1 subclass with mutations P329G/L234A/L235A/I253A/H310A/H435A) [IgG part: P01857]; experiment: sandwich ELISA assay A; capture M1.7.10-Bi; antibody 1 at 25 ng/mL
# [8] = biological target: anti-IGF-1R antibody (IgG1 subclass with mutations I253A/H310A/H435A) [IgG part: P01857]; experiment: sandwich ELISA assay A; capture M1.7.10-Bi; antibody 3 at 13 ng/mL
# [9] = biological target: anti-P-Selectin antibody (IgG4 subclass with mutations S228P/L235E) [IgG part: P01861]; experiment: sandwich ELISA assay A; capture M1.7.10-Bi; antibody 4 at 50 ng/mL
# [10] = biological target: anti-VEGF/ANG2 antibody (wild-type IgG1 subclass) [IgG part: P01857]; experiment: sandwich ELISA assay A; capture M1.7.10-Bi; antibody 5 at 50 ng/mL
# [11] = biological target: anti-VEGF/ANG2 antibody (IgG1 subclass with mutations P329G/L234A/L235A/I253A/H310A/H435A) [IgG part: P01857]; experiment: sandwich ELISA assay A; capture M1.7.10-Bi; antibody 1 at 100 ng/mL
# [12] = biological target: anti-IGF-1R antibody (IgG1 subclass with mutations I253A/H310A/H435A) [IgG part: P01857]; experiment: sandwich ELISA assay A; capture M1.7.10-Bi; antibody 3 at 100 ng/mL
# [13] = biological target: anti-P-Selectin antibody (IgG4 subclass with mutations S228P/L235E) [IgG part: P01861]; experiment: sandwich ELISA assay A; capture M1.7.10-Bi; antibody 4 at 100 ng/mL
# [14] = biological target: anti-IGF-1R antibody (IgG1 subclass with mutations I253A/H310A/H435A) (human) [IgG part: P01857]; experiment: sandwich ELISA assay B; capture on SA plate; tracer M1.7.10-Dig; analyte 3 ng/mL
# [15] = biological target: anti-P-Selectin antibody (IgG4 subclass with mutations S228P/L235E) (human) [IgG part: P01861]; experiment: as above
# [16] = biological target: anti-VEGF/ANG2 antibody (IgG1 subclass with mutations P329G/L234A/L235A) (human) [IgG part: P01857]; experiment: as above
# [17] = biological target: anti-VEGF/ANG2 antibody (IgG1 subclass with mutations P329G/L234A/L235A/I253A/H310A/H435A) (human) [IgG part: P01857]; experiment: as above
# [18] = biological target: anti-IGF-1R antibody (IgG1 subclass with mutations I253A/H310A/H435A) (human) [IgG part: P01857]; experiment: sandwich ELISA assay B; capture on SA plate; tracer M1.7.10-Dig; analyte 25 ng/mL
# [19] = biological target: anti-P-Selectin antibody (IgG4 subclass with mutations S228P/L235E) (human) [IgG part: P01861]; experiment: as above
# [20] = biological target: anti-VEGF/ANG2 antibody (IgG1 subclass with mutations P329G/L234A/L235A) (human) [IgG part: P01857]; experiment: as above
# [21] = biological target: anti-VEGF/ANG2 antibody (IgG1 subclass with mutations P329G/L234A/L235A/I253A/H310A/H435A) (human) [IgG part: P01857]; experiment: as above
# [22] = biological target: anti-IGF-1R antibody (IgG1 subclass with mutations I253A/H310A/H435A) (human) [IgG part: P01857]; experiment: sandwich ELISA assay C; capture on SA plate; tracer FcγRI-Dig; analyte 0 ng/mL (blank)
# [23] = biological target: anti-P-Selectin antibody (IgG4 subclass with mutations S228P/L235E) (human) [IgG part: P01861]; experiment: as above
# [24] = biological target: anti-VEGF/ANG2 antibody (IgG1 subclass with mutations P329G/L234A/L235A) (human) [IgG part: P01857]; experiment: as above
# [25] = biological target: anti-VEGF/ANG2 antibody (IgG1 subclass with mutations P329G/L234A/L235A/I253A/H310A/H435A) (human) [IgG part: P01857]; experiment: as above
signal [OD405 nm] [1] [OD405 nm],signal [OD405 nm] [2] [OD405 nm],signal [OD405 nm] [3] [OD405 nm],signal [OD405 nm] [4] [OD405 nm],signal [OD405 nm] [5] [OD405 nm],signal [OD405 nm] [6] [OD405 nm],signal [OD405 nm] [7] [OD405 nm],signal [OD405 nm] [8] [OD405 nm],signal [OD405 nm] [9] [OD405 nm],signal [OD405 nm] [10] [OD405 nm],signal [OD405 nm] [11] [OD405 nm],signal [OD405 nm] [12] [OD405 nm],signal [OD405 nm] [13] [OD405 nm],signal [OD405 nm] [14] [OD405 nm],signal [OD405 nm] [15] [OD405 nm],signal [OD405 nm] [16] [OD405 nm],signal [OD405 nm] [17] [OD405 nm],signal [OD405 nm] [18] [OD405 nm],signal [OD405 nm] [19] [OD405 nm],signal [OD405 nm] [20] [OD405 nm],Binder,further results
0.669,1.99,0.038,0.034,0.033,0.034,0.04,0.04,0.037,0.041,0.043,0.047,0.04,0.047,0.05,0.165,0.036,0.046,0.047,0.213,"anti-variant (human) Fc-region antibody M1.3.17 (antibody, V domains shown) VH: EVKLLESGGGLVQPGGSLKLSCAASGIDFRRYWMNWVRQAPGKGLEWIGEIDPDSSTINYTPSLKDKFIISRDNAKNTMYLQMRKVRSEDTALYYCARPYDYGAWFAYWGQGTLVTVSA VL: QAVVTQESALTTSPGETVTLTCRSTTGAVTTSNYANWVQEKPDHLFTGLIGGTNKRAPGVPARFSGSLIGDKAALTITGAQTEDEAIYFCALWYSDHWVFGGGTKLTVL",signal [OD405 nm] [21]: 0.035 OD405 nm; signal [OD405 nm] [22]: 1.22 OD405 nm; signal [OD405 nm] [23]: 1.19 OD405 nm; signal [OD405 nm] [24]: 1.23 OD405 nm; signal [OD405 nm] [25]: 1.18 OD405 nm
1.13,2.24,0.042,0.036,0.04,0.038,0.047,0.044,0.049,0.048,0.053,0.06,0.046,0.046,0.031,2.51,0.04,0.048,0.04,3.16,"anti-variant (human) Fc-region antibody M1.7.24 (antibody, V domains shown) VH: EVKLLESGGGLVQPGGSLKLSCAASGFDFSRYWMNWVRQAPGKGLEWIGEITPDSSTINYTPSLKDKFIISRDNAKNTLYLQMIKVRSEDTALYYCVRPYDYGAWFASWGQGTLVTVSA VL: QAVVTQESALTTSPGETVTLTCRSSTGAVTTSNYANWVQEKPDHLFTGLIGGTNKRAPGVPARFSGSLIGDKAALTITGAQTEDEAIYFCALWYSNHWVFGGGTKLTVL",signal [OD405 nm] [21]: 0.047 OD405 nm; signal [OD405 nm] [22]: 0.086 OD405 nm; signal [OD405 nm] [23]: 0.076 OD405 nm; signal [OD405 nm] [24]: 0.092 OD405 nm; signal [OD405 nm] [25]: 0.076 OD405 nm
0.047,0.044,0.858,0.04,0.037,0.047,0.061,1.74,0.052,0.045,0.059,2.89,0.057,2.26,0.039,0.044,0.039,2.89,0.048,0.092,"anti-AAA variant Fc-region antibody M1.6.22 (antibody, V domains shown) VH: EVQLVESGGDLVKPGGSLKLSCAASGFTFSSYGMSWVRQTPDKRLEWVATISSGGSYIYYPDSVKGRFTISRDNAKNTLYLQMSSLKSEDTAMYYCARLGMITTGYAMDYWGQGTSVTVSS VL: DVLMTQTPLSLPVSLGDQASISCRSSQTIVHSTGHTYLEWFLQKPGQSPKLLIYKVSNRFSGVPDRFSGSGSGTDFTLKISRVEAEDLGVYYCFQGSHVPYTFGGGTKLEIK",signal [OD405 nm] [21]: 0.044 OD405 nm; signal [OD405 nm] [22]: 0.069 OD405 nm; signal [OD405 nm] [23]: 0.077 OD405 nm; signal [OD405 nm] [24]: 0.064 OD405 nm; signal [OD405 nm] [25]: 0.077 OD405 nm
